# Measured values: patent US20240288446
# T1: Human Glu-plasminogen
# T1 chain: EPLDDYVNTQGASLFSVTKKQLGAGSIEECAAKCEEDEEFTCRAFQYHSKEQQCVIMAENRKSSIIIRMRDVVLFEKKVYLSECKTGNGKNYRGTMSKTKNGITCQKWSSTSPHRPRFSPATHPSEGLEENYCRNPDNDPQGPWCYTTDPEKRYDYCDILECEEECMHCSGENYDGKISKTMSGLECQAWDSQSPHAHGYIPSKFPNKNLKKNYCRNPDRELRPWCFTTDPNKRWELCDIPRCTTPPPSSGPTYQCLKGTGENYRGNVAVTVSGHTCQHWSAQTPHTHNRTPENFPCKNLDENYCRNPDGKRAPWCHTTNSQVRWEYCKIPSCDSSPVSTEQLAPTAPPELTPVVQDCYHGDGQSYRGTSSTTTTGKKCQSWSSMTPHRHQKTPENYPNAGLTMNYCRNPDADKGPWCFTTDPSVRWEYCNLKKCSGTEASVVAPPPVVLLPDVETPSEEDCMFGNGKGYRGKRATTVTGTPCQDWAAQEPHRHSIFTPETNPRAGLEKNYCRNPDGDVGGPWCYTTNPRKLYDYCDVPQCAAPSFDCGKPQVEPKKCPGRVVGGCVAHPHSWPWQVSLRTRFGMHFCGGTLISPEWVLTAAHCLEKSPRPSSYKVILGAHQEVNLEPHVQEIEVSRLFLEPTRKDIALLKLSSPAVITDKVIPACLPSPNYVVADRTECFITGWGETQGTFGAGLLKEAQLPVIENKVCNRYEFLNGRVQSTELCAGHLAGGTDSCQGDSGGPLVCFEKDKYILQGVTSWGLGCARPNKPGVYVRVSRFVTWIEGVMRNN
# B1: Human tissue plasminogen activator (protein)
# chain: SYQVICRDEKTQMIYQQHQSWLRPVLRSNRVEYCWCNSGRAQCHSVPVKSCSEPRCFNGGTCQQALYFSDFVCQCPEGFAGKCCEIDTRATCYEDQGISYRGTWSTAESGAECTNWNSSALAQKPYSGRRPDAIRLGLGNHNYCRNPDRDSKPWCYVFKAGKYSSEFCSTPACSEGNSDCYFGNGSAYRGTHSLTESGASCLPWNSMILIGKVYTAQNPSAQALGLGKHNYCRNPDGDAKPWCHVLKNRRLTWEYCDVPSCSTCGLRQYSQPQFRIKGGLFADIASHPWQAAIFAKHRRSPGERFLCGGILISSCWILSAAHCFQERFPPHHLTVILGRTYRVVPGEEEQKFEVEKYIVHKEFDDDTYDNDIALLQLKSDSSRCAQESSVVRTVCLPPADLQLPDWTECELSGYGKHEALSPFYSERLKEAHVRLYPSSRCTSQHLLNRTVTDNMLCAGDTRSGGPQANLHDACQGDSGGPLVCLNDGRMTLVGIISWGLGCGQKDVPGVYTKVTNYLDWIRDNMRP
# Target: T1, Human Glu-plasminogen
protein,measurement,value
B1,conversion of plasminogen into plasmin (plasmin-selective chromogenic substrate),The time- and concentration-dependent conversion of plasminogen into plasmin at the fibrin-NETs lattice was reduced as compared to fibrin alone
